Results taken from patent US9011913B2, “Use of functionalized magnetic nanoparticles in cancer detection and treatment” (The Regents of the University of California, priority 2008, dated 2015).
No end group written: not given here.

Assays:
[1] = Tissue half-life of the particles; settings: in vivo
adrenal gland = test: MRI of adrenal glands after ACTH-MNP injection; format: in vivo, mouse; settings: tail vein
Protocol: ACTH-MNP was injected through tail vein (approximately 1 μg iron-oxide per gram of body weight) in a 1-day old mouse and a 60-day old mouse. MR images (T2, TE 6000, TR=[…], 0.4-1 mm slice thickness, 3 cm FOV, Brucker Biospin 7T) were obtain before, and up to 3 hours after injection with these contrast agents.

[2] = Shelf-life of the compounds; format: physicochemical
AtT-20 cells = test: Functional studies of tumor cells: c-AMP production; format: cell-based, Murine
Protocol: Functional studies of tumor cells. Murine pituitary tumor cell lines (AtT-20 cells; American Type Culture Collection designation CCL-89™) were incubated with CRF and CRF-MNP preparations at 6 different molar concentrations of CRF and CRF-equivalent concentration of CRF-MNP (10^−12-10^−7 molar, factor of 10 increase per step). Production of c-AMP (nM) was measured after equivalent times of incubation with all the preparations.

[3] = equivalent CRF concentrations 10^−12-10^−7 molar

Substance	tissue half-life [1]	uptake in the adrenals (adrenal gland; 1-day old mouse, 5 μl)	uptake in the adrenals (adrenal gland; 60 day old mouse, 100 μl)	shelf-life [2]	cytotoxicity (AtT-20 cells; AtT-20 cells)	functional properties of CRF while conjugated to the nanoparticles (AtT-20 cells; cellular level)	decrease in potency compared to CRF (c-AMP production) (AtT-20 cells; [3])	increase in efficacy compared to CRF (c-AMP production) (AtT-20 cells; [3])
ACTH-MNP: Adrenocorticotropin Hormone (ACTH)-conjugated dextran-coated and epoxy surface-modified magnetonanoparticles, 10-15 nm diameter (SYSMEHFRWGKPVGKKRRPVKVYPNGAEDESAEAFPLEF; also: conjugated to dextran-coated, epoxy surface-modified magnetic nanoparticles; UniProt P01189 138-176, looked up)	order of hours to days	increased uptake (decreased signal intensity)	increased uptake (decreased signal intensity)	2-3 months				
CRF-MNP: CRF-conjugated dextran-coated and maleimide surface-modified magnetonanoparticles, 10-15 nm diameter	order of hours to days			6-12 months	not cytotoxic	retains its functional properties	approximately 10 fold	two-fold increase
